Experimental data taken from publication doi:10.1101/2024.10.03.616038 (bioRxiv, 2024).

Target: 6P stabilised SARS-CoV-2 spike protein (SARS-CoV-2, original (Wuhan) strain, UniProt P0DTC2, stabilised)
Assay: cryo-EM structure
Details: both partners purified

B1: REGN10987 Fab (Fab, V domains shown)
VH: QVQLVESGGGVVQPGRSLRLSCAASGFTFSNYAMYWVRQAPGKGLEWVAVISYDGSNKYYADSVKGRFTISRDNSKNTLYLQMNSLRTEDTAVYYCASGSDYGDYLLVYWGQGTLVTVSS
VL: QSALTQPASVSGSPGQSITISCTGTSSDVGGYNYVSWYQQHPGKAPKLMIYDVSKRPSGVSNRFSGSKSGNTASLTISGLQSEDEADYYCNSLTSISTWVFGGGTKLTVL
binding result: binds
